{"source": "paper PMC6851296", "about": "“Atomic-resolution crystal structures of the immune protein conglutinin from cow reveal specific interactions of its binding site with N-acetylglucosamine” (The Journal of Biological Chemistry, 2019)", "target": "the molecule itself", "test": "SEC; Superdex-75 HR 10/300, Tris buffer with 10 mM EDTA, 1 ml/min; calibrated with alcohol dehydrogenase, BSA, carbonic anhydrase and cytochrome C; nondissociating conditions", "data": [{"protein": "recombinant fragment of bovine conglutinin consisting of the CRD and neck regions (rfBC, residues 199-351 of native conglutinin) (domain or fragment, vector-derived first five residues (GLAEV in conglutinin); bovine conglutinin, neck plus carbohydrate recognition domain, the C-terminal 153 residues Asn-199 to Phe-351; also called trimeric recombinant neck plus CRD conglutinin fragment; recombinant homotrimeric fragment of conglutinin) GSAEANALKQRVTILDGHLRRFQNAFSQYKKAVLFPDGQAVGEKIFKTAGAVKSYSDAEQLCREAKGQLASPRSSAENEAVTQMVRAQEKNAYLSMNDISTEGRFTYPTGEILVYSNWADGEPNNSDEGQPENCVEIFPDGKWNDVPCSKQLLVICEF", "values": [{"measurement": "stoichiometry N", "value": 3}]}]}
